Experimental data reported in patent US20240092899A1 (CHIA TAI TIANQING PHARMACEUTICAL GROUP, published 2024).
Blank lines part the entries; values can stand above or below the binder they belong to.

How the values were obtained:
human PDL1 = molecular target: T1, human PDL1 (human, UniProt Q9NZQ7 19-238); test: SPR (Biacore 8K), antibody captured on chip, antigen injected
T1 construct: Bought antigen; also called ACROBiosystems Cat. No. PD1-H52H3
Description: (§1) The affinity properties of the HZ5G11 monoclonal antibody, the HZ14A9 monoclonal antibody, MHL147-3322-IgG1-wt and MHL147-3322-IgG1-F118A bispecific antibodies were characterized by Biacore. The HZ5G11 monoclonal antibody, the HZ14A9 monoclonal antibody, MHL147-3322-IgG1-wt and MHL147-3322-IgG1-F118A bispecific antibodies were respectively immobilized onto a sensing chip by a capture method, and a human PDL1 (manufacturer: ACROBiosystems, Cat. No. PD1-H52H3) or human CD47 (manufacturer: ACROBiosystems, Cat. No. CD7-H5227) protein antigen solution with a certain concentration gradient was injected into the sample. Association/dissociation curves were acquired in real time by Biacore 8K Control Software 3.0, and data analysis was performed by Biacore Insight Evaluation Software 3.0. An association rate constant Ka, a dissociation rate constant Kd, and an equilibrium constant KD were obtained.

human CD47 = molecular target: T2, human CD47 (human, UniProt Q08722 19-139); test: as above
T2 construct: Bought antigen; also called ACROBiosystems Cat. No. CD7-H5227
Description: as §1

[1] = molecular target: heavy chain HZ14A9VH-CH1-IgG1; test: co-expression in ExpiCHO-S, protein A purification, non-reducing SDS-PAGE, Coomassie stain
Method: (§2) After transfection, the cells were placed in ExpiCHO™ medium (manufacturer: Thermo, Cat No. A2910001), and expressed and cultured at 32° C. with 5% CO₂ at 130 rpm. On day 10, the cell supernatant was collected, and the target protein was purified by protein A affinity chromatography using AKTA Pure 25 L system from GE and MabSelect SuRe LX packing. After elution, the concentration of the eluted protein was measured using NanoDrop Lite (Thermo Fisher Scientific). The purity of the eluted protein was measured by SEC-HPLC, and the protein purity of the sample used for the test was not lower than 80%. A total amount of […] of protein was taken from each sample and subjected to non-reducing SDS-PAGE electrophoresis. The protein was stained with Coomassie brilliant blue, and the electrophoresis results were observed.
(§3) After the co-expression and purification of HZ5G11VH-Cα-IgG1 and HZ14A9VL-IgK as well as HZ14A9VH-Cα-IgG1 and HZ5G11VL-IgK, various products were generated. […] The results above indicate that there is some interaction between the CL domain and MHCICα, thereby promoting the production of light and heavy-mispaired products.

[2] = molecular target: heavy chain HZ5G11VH-CH1-IgG1; test: co-expression in ExpiCHO-S, protein A purification, non-reducing SDS-PAGE
Method: as §2, §3

[3] = molecular target: T3, heavy chain HZ5G11VH-Cα-IgG1; test: as above
T3 construct: HZ5G11 heavy chain whose CH1 is replaced by MHCICα
Method: as §2, §3

[4] = molecular target: heavy chain HZ14A9VH-CH1-IgG1; test: as above
Method: as §2, §3

[5] = molecular target: heavy chain HZ5G11VH-CH1-IgG1; test: co-expression in ExpiCHO-S, protein A purification, non-reducing SDS-PAGE, Coomassie stain
Method: as §2, §3

[6] = molecular target: heavy chain HZ14A9VH-Cα-IgG1; test: co-expression in ExpiCHO-S, protein A purification, non-reducing SDS-PAGE
Method: as §2, §3

[7] = molecular target: heavy chain HZ14A9VH-Cα-IgG1; test: co-expression in ExpiCHO-S, protein A purification, non-reducing SDS-PAGE, Coomassie stain

T1 sequence (Q9NZQ7 19-238 limits assumed): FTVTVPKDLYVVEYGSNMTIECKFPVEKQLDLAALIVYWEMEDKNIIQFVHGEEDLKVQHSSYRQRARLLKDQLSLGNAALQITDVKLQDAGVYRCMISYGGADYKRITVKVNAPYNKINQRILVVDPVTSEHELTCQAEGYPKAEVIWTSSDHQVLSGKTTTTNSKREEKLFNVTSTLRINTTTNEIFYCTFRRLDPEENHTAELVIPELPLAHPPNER
T2 sequence (Q08722 19-139 limits assumed): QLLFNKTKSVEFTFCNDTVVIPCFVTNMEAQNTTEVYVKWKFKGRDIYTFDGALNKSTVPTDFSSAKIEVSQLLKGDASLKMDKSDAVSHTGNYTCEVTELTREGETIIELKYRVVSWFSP

Kd (human PDL1): 0.282 nM | koff (human PDL1): 0.000427 s⁻¹ | kon (human PDL1): 1.51e+06 M⁻¹ s⁻¹
B1: HZ5G11 monoclonal antibody (antibody, V domains shown)
VH: QITLKESGPTLVKPTQTLTLTCTVSGFSLSTYGVHWIRQPPGKALEWLGVIWRGVTTDYNAAFMSRLTITKDNSKNQVVLTMNNMDPVDTATYYCARLGFYAMDYWGQGTLVTVSS
VL: DIQMTQSPSSLSASVGDRVTITCKASQSVSNDVAWYQQKPGKAPKLLIYYAANRYTGVPDRFSGSGYGTDFTFTISSLQPEDIATYFCQQDYTSPYTFGQGTKLEIKR
notes: Humanized IgG1 kappa antibody from a mouse hybridoma; also called monoclonal IgG1K antibody HZ5G11 targeting human PD-L1

Kd (human CD47): 5.85 nM | koff (human CD47): 0.0143 s⁻¹ | kon (human CD47): 2.45e+06 M⁻¹ s⁻¹
B2: HZ14A9 monoclonal antibody (antibody, V domains shown)
VH: QVQLVQSGAEVKKPGASVKVSCKVSGFNIEDDYIEWVRQAPGQGLEWMGRIDPANDKTKYAQKFQGRVTMTGDTSTNTVYMELSSLRSEDTAVYYCARPGLRRYYSMDYWGQGTLVTVSS
VL: DIQMTQSPSSLSASVGDRVTITCKASENVVSYVSWYQQKPGKAPKLLIYGASNRYTGVPSRFIGSGSSTDFTLTISSLQPEDFATYYCGQSYSYPLTFGQGTKLEIKR
notes: Humanized IgG1 kappa antibody from a mouse hybridoma; also called monoclonal IgG1K antibody HZ14A9 targeting human CD47

binding result [1]: binds | binding result [2]: binds | binding result [3]: binds
B3: light chain HZ14A9VL-IgK (other)
light: DIQMTQSPSSLSASVGDRVTITCKASENVVSYVSWYQQKPGKAPKLLIYGASNRYTGVPSRFIGSGSSTDFTLTISSLQPEDFATYYCGQSYSYPLTFGQGTKLEIKRTVAAPSVFIFPPSDEQLKSGTASVVCLLNNFYPREAKVQWKVDNALQSGNSQESVTEQDSKDSTYSLSSTLTLSKADYEKHKVYACEVTHQGLSSPVTKSFNRGEC

Kd (human PDL1): 0.304 nM | koff (human PDL1): 0.000562 s⁻¹ | kon (human PDL1): 1.85e+06 M⁻¹ s⁻¹ | Kd (human CD47): 3.31 nM | koff (human CD47): 0.0124 s⁻¹ | kon (human CD47): 3.75e+06 M⁻¹ s⁻¹
B4: MHL147-3322-IgG1-wt (bispecific antibody)
heavy 1: not shown
light 1: DIQMTQSPSSLSASVGDRVTITCKASQSVSNDVAWYQQKPGKAPKLLIYYAANRYTGVPDRFSGSGYGTDFTFTISSLQPEDIATYFCQQDYTSPYTFGQGTKLEIKIQRTPKIQVYSCHPAENGKSNFLNCYVSGFHPSDIEVDLLKNGERIEKVEHSDLSFSKDWSFYLLYYTRFTPTEKDEYACRVNHVTLSQPKIVKWDRGP
heavy 2: not shown
light 2: DIQMTQSPSSLSASVGDRVTITCKASENVVSYVSWYQQKPGKAPKLLIYGASNRYTGVPSRFIGSGSSTDFTLTISSLQPEDFATYYCGQSYSYPLTFGQGTKLEIKRTVAAPSVFIFPPSDEQLKSGTASVVCLLNNFYPREAKVQWKVDNALQSGNSQESVTEQDSKDSTYSLSSTLTLSKADYEKHKVYACEVTHQGLSSPVTKSFNRGEC
notes: IgG1 bispecific with LALA (L234A+L235A) and KIH mutations; The PD-L1 arm is modified with MHC-I elements; the CD47 arm is a Fab with wild-type kappa CL; also called anti-PDL1*CD47 bispecific antibody

Kd (human PDL1): 0.384 nM | koff (human PDL1): 0.000606 s⁻¹ | kon (human PDL1): 1.58e+06 M⁻¹ s⁻¹ | Kd (human CD47): 5.26 nM | koff (human CD47): 0.0249 s⁻¹ | kon (human CD47): 4.74e+06 M⁻¹ s⁻¹
B5: MHL147-3322-IgG1-F118A (bispecific antibody)
heavy 1: not shown
light 1: DIQMTQSPSSLSASVGDRVTITCKASQSVSNDVAWYQQKPGKAPKLLIYYAANRYTGVPDRFSGSGYGTDFTFTISSLQPEDIATYFCQQDYTSPYTFGQGTKLEIKIQRTPKIQVYSCHPAENGKSNFLNCYVSGFHPSDIEVDLLKNGERIEKVEHSDLSFSKDWSFYLLYYTRFTPTEKDEYACRVNHVTLSQPKIVKWDRGP
heavy 2: not shown
light 2: DIQMTQSPSSLSASVGDRVTITCKASENVVSYVSWYQQKPGKAPKLLIYGASNRYTGVPSRFIGSGSSTDFTLTISSLQPEDFATYYCGQSYSYPLTFGQGTKLEIKRTVAAPSVFIAPPSDEQLKSGTASVVCLLNNFYPREAKVQWKVDNALQSGNSQESVTEQDSKDSTYSLSSTLTLSKADYEKHKVYACEVTHQGLSSPVTKSFNRGEC
notes: IgG1 bispecific with LALA (L234A+L235A) and KIH mutations; The PD-L1 arm is modified with MHC-I elements; the CD47 arm is a Fab whose kappa CL carries F118A (EU numbering); also called MHL147-3322-F118A; anti-PDL1*CD47 bispecific antibody

binding result [4]: no binding
B6: light chain HZ5G11VL-Cβ (other)
light: DIQMTQSPSSLSASVGDRVTITCKASQSVSNDVAWYQQKPGKAPKLLIYYAANRYTGVPDRFSGSGYGTDFTFTISSLQPEDIATYFCQQDYTSPYTFGQGTKLEIKIQRTPKIQVYSCHPAENGKSNFLNCYVSGFHPSDIEVDLLKNGERIEKVEHSDLSFSKDWSFYLLYYTRFTPTEKDEYACRVNHVTLSQPKIVKWDRGP
notes: HZ5G11 light chain whose CL is replaced by MHCICβ

binding result [5]: binds | binding result [6]: binds | binding result [4]: binds
B7: light chain HZ5G11VL-IgK (other)
light: DIQMTQSPSSLSASVGDRVTITCKASQSVSNDVAWYQQKPGKAPKLLIYYAANRYTGVPDRFSGSGYGTDFTFTISSLQPEDIATYFCQQDYTSPYTFGQGTKLEIKRTVAAPSVFIFPPSDEQLKSGTASVVCLLNNFYPREAKVQWKVDNALQSGNSQESVTEQDSKDSTYSLSSTLTLSKADYEKHKVYACEVTHQGLSSPVTKSFNRGEC

binding result [7]: binds
B8: HZ5G11VL-IgK-F118I (other)
light chain: DIQMTQSPSSLSASVGDRVTITCKASQSVSNDVAWYQQKPGKAPKLLIYYAANRYTGVPDRFSGSGYGTDFTFTISSLQPEDIATYFCQQDYTSPYTFGQGTKLEIKRTVAAPSVFIIPPSDEQLKSGTASVVCLLNNFYPREAKVQWKVDNALQSGNSQESVTEQDSKDSTYSLSSTLTLSKADYEKHKVYACEVTHQGLSSPVTKSFNRGEC
notes: Variant of m12; also called light chain HZ5G11VL-IgK with F118I (EU numbering) in the CL domain

binding result [7]: binds
B9: HZ5G11VL-IgK-F116A (other)
light chain: DIQMTQSPSSLSASVGDRVTITCKASQSVSNDVAWYQQKPGKAPKLLIYYAANRYTGVPDRFSGSGYGTDFTFTISSLQPEDIATYFCQQDYTSPYTFGQGTKLEIKRTVAAPSVAIFPPSDEQLKSGTASVVCLLNNFYPREAKVQWKVDNALQSGNSQESVTEQDSKDSTYSLSSTLTLSKADYEKHKVYACEVTHQGLSSPVTKSFNRGEC
notes: Variant of m12; also called light chain HZ5G11VL-IgK with F116A (EU numbering) in the CL domain

binding result [7]: binds
B10: HZ5G11VL-IgK-S114A (other)
light chain: DIQMTQSPSSLSASVGDRVTITCKASQSVSNDVAWYQQKPGKAPKLLIYYAANRYTGVPDRFSGSGYGTDFTFTISSLQPEDIATYFCQQDYTSPYTFGQGTKLEIKRTVAAPAVFIFPPSDEQLKSGTASVVCLLNNFYPREAKVQWKVDNALQSGNSQESVTEQDSKDSTYSLSSTLTLSKADYEKHKVYACEVTHQGLSSPVTKSFNRGEC
notes: Variant of m12; also called light chain HZ5G11VL-IgK with S114A (EU numbering) in the CL domain

binding result [2]: no binding
B11: light chain HZ14A9VL-Cβ (other)
light: DIQMTQSPSSLSASVGDRVTITCKASENVVSYVSWYQQKPGKAPKLLIYGASNRYTGVPSRFIGSGSSTDFTLTISSLQPEDFATYYCGQSYSYPLTFGQGTKLEIKIQRTPKIQVYSCHPAENGKSNFLNCYVSGFHPSDIEVDLLKNGERIEKVEHSDLSFSKDWSFYLLYYTRFTPTEKDEYACRVNHVTLSQPKIVKWDRGP
